Test [1] has as its target T1, recombinant human IL-8, (ser-IL-8)72 (human, UniProt P10145 28-99).
T1 construct: mature; radio-iodinated when used as tracer; also called human wild type IL-8; wt IL-8
T1 sequence (looked up): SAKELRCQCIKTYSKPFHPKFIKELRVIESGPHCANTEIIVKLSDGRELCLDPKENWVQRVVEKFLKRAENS
The test can be described thus: inhibition of 125I-IL-8 binding to human neutrophils.

Test [2] deals with T1, recombinant human IL-8, (ser-IL-8)72. The description is as above. This is another data set of the same source.
Test [3] has the same target. The test can be described thus: cell-based or functional assay.
The target in another test is T2, rhesus IL-8 (rhesus, UniProt P67813 23-101, limits assumed).
T2 sequence (looked up): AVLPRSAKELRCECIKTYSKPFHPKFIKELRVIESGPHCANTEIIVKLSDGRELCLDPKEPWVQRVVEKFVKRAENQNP
Kind of test: cell-based or functional assay.

Substitutions are numbered along the chain they refer to. Read-outs that look alike come from different tables or passages of the source.

One may read the IC50 as the concentration needed to halve the response being measured.

B1: humanized 6G425 F(ab)-1 (Fab, V domains shown)
VH: EVQLVESGGGLVQPGGSLRLSCAASGYSFSSHYMHWVRQAPGKGLEWVGYIDPSNGETTYNQKFKGRFTISRDNSKNTLYLQMNSLRAEDTAVYYCARGDYRYNGDWFFDVWGQGTLVTVSS
VL: DIQMTQSPSSLSASVGDRVTITCRSSQSLVHGIGNTYLHWYQQKPGKAPKLLIYKVSNRFSGVPSRFSGSGSGTDFTLTISSLQPEDFATYYCSQSTHVPLTFGQGTKVEIKR
notes: Fab with human kappa subgroup I light chain and human IgG1 subgroup III heavy chain (vector pEMX1); also called version 1; VI
As for B1, in test [1], the IC50 was 40 nM and the “fold reduction in binding affinity (against the chimeric F(ab) of Table 4)” value was found to be 5.5 fold. The IC50 in test [2] turned out to be 63 nM.

B2: humanized 6G425 F(ab)-7 (Fab, V domains shown)
VH: B1 VH with I70L, L79A, L81V
VL: B1 VL
notes: Template F(ab)-6; Fab constant parts as F(ab)-1; also called version 16
With B2, in test [2], the half-inhibitory concentration (IC50) worked out at 38.4 nM.

B3: humanized 6G425 F(ab)-8 (6G4.2.5V19) (Fab, V domains shown)
VH: B1 VH with R38K, I70L, L79A
VL: B1 VL
Consider B3, for which the “IC50, neutrophil chemotaxis” value in test [3] was determined as 0.12 nM; with rhesus IL-8, 10 nM.

B4: humanized 6G425 F(ab)-2 (Fab, V domains shown)
VH: B1 VH with F68A
VL: B1 VL
notes: Template F(ab)-1; Fab constant parts as F(ab)-1; also called version 2
As for B4, in test [1], the “fold decrease in IL-8 binding (against F(ab)-1)” value is less than 2 fold. In addition, the IC50 in test [2] worked out at 106 nM.

B5: humanized 6G425 F(ab)-3 (Fab, V domains shown)
VH: B1 VH with R72V
VL: B1 VL
notes: Template F(ab)-1; Fab constant parts as F(ab)-1; also called version 3
On to B5, for which the “fold decrease in IL-8 binding (against F(ab)-1)” value in test [1] was less than 2 fold. Moreover, the IC50 in test [2] is 79.8 nM.

The values are drawn from patent publication US6870033.
